Literature values in PMC4174909.

Target: His37 (UniProt position 37, IIGILHLILWI)

Which pKa does the source give for “Matrix protein 2 (M2 proton channel) (Influenza A virus (strain not stated for the quoted pKa values; the experiments of this article use A/Udorn/72))” here?
The pKa was 8.2 and about 6 and about 4 to 5.
